# Measurements reported in patent US20200255504A1 (VIB VZW, published 2020).
# Residue numbers refer to the chain shown, from its start. “And” between values parts separate entries of the source, which are not always exact repeats. Equal values may be shown once.
# B1: SA1 VHH (VHH)
# VHH: QVQLQESGGGLVQAGGSLRLSCAASGRNISEYVMGWFRQAPGKEREFVAAISWSAGNIYYADSVKGRFTISRDNAKNTVHLQMNTLRPEDTAVYYCAAGRYSAWYVAAYEYDYWGQGTQVTVSS
# notes: From WO2014/037419; made in E. coli WK6 periplasm; also called non-mutated SA1; original SA1 VHH
# B2: SA1-biotinylated (VHH)
# VHH: B1 VHH
# modifications: labeled with NHS-PEG4-Biotin at a 5/1 molar ratio of biotin/VHH; labelled residues not determined
# notes: also called biotinylated SA1
# B3: SA1_S30K humanized variant 3 VHH (VHH)
# VHH: B1 VHH with Q1E, A14P, S30K, A75S, T85S, Q119L
# notes: also called h3
# B4: SA1_S30K humanized variant 2 VHH (VHH)
# VHH: B1 VHH with Q1E, A14P, S30K, A75S, H80Y, Q119L
# notes: also called h2
# B5: SA1_S30K humanized variant 1 VHH (VHH)
# VHH: B1 VHH with Q1E, A14P, S30K, A75S, Q119L
# notes: also called h1
# B6: SA1_S30K-biotinylated (VHH)
# VHH: B1 VHH with S30K
# modifications: labeled with NHS-PEG4-Biotin at a 5/1 molar ratio of biotin/VHH; the filing says the higher signal is likely related to the additional lysine at position 30; labelled residues not determined
# notes: also called biotinylated SA1_S30K VHH
# B7: SA1_S30K VHH (VHH)
# VHH: B1 VHH with S30K
# notes: Made in E. coli WK6 periplasm; also called SA1_S3OK; SA1_S30K mutant variant
# B8: SA1_S30K humanized variant 4 VHH (VHH)
# VHH: B1 VHH with Q1E, A14P, S30K, A75S, H80Y, T85S, Q119L
# notes: also called h4
# B9: VHH-GFP-SA1_S30K (bispecific antibody)
# chain: QVQLQESGGALVQPGGSLRLSCAASGFPVNRYSMRWYRQAPGKEREWVAGMSSAGDRSSYEDSVKGRFTISRDDARNTVYLQMNSLKPEDTAVYYCNVNVGFEYWGQGTQVTVSSGGSGGSGGSGGSGGSGGSGGSGGSGGSGGSGGSGGSGGSGGSGGSGGSGGSGGSGGSGGSQVQLQESGGGLVQAGGSLRLSCAASGRNIKEYVMGWFRQAPGKEREFVAAISWSAGNIYYADSVKGRFTISRDNAKNTVHLQMNTLRPEDTAVYYCAAGRYSAWYVAAYEYDYWGQGTQVTVSS
# notes: also called VHH-GFP-SA26
# Columns and labels:
# mouse serum albumin [1] = target: T1, mouse serum albumin (mouse, UniProt P07724 25-608); assay: BLI Octet RED96, mouse albumin, reference SA1_S30K
# T1 construct: also called mouse albumin
# bovine serum albumin = target: T2, bovine serum albumin (bovine, UniProt P02769 25-607); assay: BLI Octet RED96, albumin on AR2G sensors
# T2 construct: also called bovine albumin
# dog serum albumin = target: T3, dog serum albumin (dog, UniProt P49822 25-608); assay: BLI Octet RED96, albumin on AR2G sensors, VHH 800-12.5 nM, 1:1 model
# T3 construct: also called dog SA; dog albumin
# Procedure: (§1) 10 mg of lyophilized cat, dog, horse or pig serum (HSA) albumin (Sigma) was resuspended in 1 mL of PBS (10 μg/μL). This was used at 20 μg/mL in the “Ligand scouting immobilization conditions” protocol for AR2G Biosensors as detailed in Fortebio Technical Note 26, in conjunction with a Fortebio Octet Red96 machine. Only the pH 5.0 and pH 4.0 condition were tested.
# (§2) After data acquisition, the profiles were analyzed using the Octet Data analysis software v9.0.
# horse serum albumin = target: T4, horse serum albumin (horse, UniProt P35747 25-607); assay: as above
# T4 construct: also called horse SA; horse albumin
# Procedure: as §1, §2
# rabbit serum albumin = target: T5, rabbit serum albumin (rabbit, UniProt P49065 25-608); assay: BLI Octet RED96, albumin on AR2G sensors, VHH 1600-25 nM
# T5 construct: also called rabbit albumin
# human serum albumin [2] = target: T6, human serum albumin (human, UniProt P02768 25-609); assay: BLI off-rate screen, periplasmic extract 1/4 in 75 mM NaAc pH 5.5, HSA on AR2G sensors
# T6 construct: also called HSA; human albumin
# Procedure: (§3) Off-rate was analyzed by BioLayer Interferometry on an Octet RED96 (Fortebio) instrument using human serum albumin (HSA) coated Octet AR2G sensors (HSA was coupled at 20 μg/mL at pH 5.0 as detailed in Fortebio Technical Note 26).
# human serum albumin [3] = target: T6, human serum albumin; assay: BLI Octet RED96, HSA on AR2G sensors, VHH 100-1.5 nM
# human serum albumin [4] = target: T6, human serum albumin; assay: BLI off-rate screen, periplasmic extract 1/4 in PBS, HSA on AR2G sensors
# Procedure: as §3
# rat serum albumin [5] = target: T7, rat serum albumin (rat, UniProt P02770 25-608); assay: BLI Octet RED96, rat albumin, reference SA1_S30K
# T7 construct: also called rat albumin
# rat serum albumin [6] = target: T7, rat serum albumin; assay: BLI Octet RED96, albumin on AR2G sensors, VHH 100-1.5 nM
# human serum albumin [7] = target: T6, human serum albumin; assay: as above
# mouse serum albumin [8] = target: T1, mouse serum albumin; assay: as above
# [9] = target: T8, cynomolgus monkey serum albumin (cynomolgus monkey); assay: as above
# T8 construct: also called cyno albumin
# pig serum albumin = target: T9, pig serum albumin (pig, UniProt P08835 25-607); assay: BLI Octet RED96, albumin on AR2G sensors
# T9 construct: also called pig SA
# Procedure: as §1, §2
# cat serum albumin = target: T10, cat serum albumin (cat, UniProt P49064 25-608); assay: BLI Octet RED96, albumin on AR2G sensors
# T10 construct: also called cat SA
# Procedure: as §1, §2
# human serum albumin [10] = target: T6, human serum albumin; assay: BLI Octet RED96, HSA on AR2G sensors, VHH 100-1.5 nM (column head says nM; values look like M)
# human serum albumin [11] = target: T6, human serum albumin; assay: BLI Octet RED96, albumin on AR2G sensors (as in Example 4)
# [12] = target: T8, cynomolgus monkey serum albumin; assay: as above
# human serum albumin [13] = target: T6, human serum albumin; assay: BLI Octet RED96, HSA on AR2G sensors
# human serum albumin [14] = target: T6, human serum albumin; assay: affinity determination, method not stated
binder,measurement,setting,value
B1,fold lower affinity than SA1_S30K,mouse serum albumin [1],2 fold
same,binding result,bovine serum albumin,no binding
same,Kd,dog serum albumin,126 nM
same,koff,dog serum albumin,0.0158 s⁻¹
same,kon,dog serum albumin,123000 M⁻¹ s⁻¹
same,Kd,horse serum albumin,121 nM
same,koff,horse serum albumin,0.00483 s⁻¹
same,kon,horse serum albumin,52100 M⁻¹ s⁻¹
same,Kd,rabbit serum albumin,600 nM
same,koff,human serum albumin [2],0.000972 s⁻¹ and 0.00119 s⁻¹
same,koff,human serum albumin [3],0.00022 s⁻¹
same,koff,human serum albumin [4],0.00222 s⁻¹ and 0.00199 s⁻¹
same,fold lower affinity than SA1_S30K,rat serum albumin [5],20 fold
same,Kd,rat serum albumin [6],0.45 nM
same,Kd,human serum albumin [7],0.9 nM
same,Kd,mouse serum albumin [8],0.66 nM
same,Kd,[9],0.37 nM
same,binding result,pig serum albumin,no binding (tested: 800 nM (highest concentration))
same,binding result,cat serum albumin,no binding (tested: 800 nM (highest concentration))
same,Kd,human serum albumin [10],1.15 nM
B2,koff,human serum albumin [3],0.000166 s⁻¹
same,Kd,human serum albumin [10],1.97 nM
B3,Kd,human serum albumin [11],1.64 nM
same,Kd,[12],0.29 nM
B4,Kd,human serum albumin [11],1.53 nM
same,Kd,[12],0.5 nM
B5,Kd,human serum albumin [11],1.33 nM
same,Kd,[12],0.36 nM
B6,fold change in KD or kon or koff against the unbiotinylated VHH,human serum albumin [13],< 2 fold
same,koff,human serum albumin [3],0.000187 s⁻¹
same,Kd,human serum albumin [10],1.49 nM
B7,binding result,bovine serum albumin,no binding
same,Kd,dog serum albumin,160 nM
same,koff,dog serum albumin,0.0181 s⁻¹
same,kon,dog serum albumin,166000 M⁻¹ s⁻¹
same,Kd,horse serum albumin,201 nM
same,koff,horse serum albumin,0.0103 s⁻¹
same,kon,horse serum albumin,59100 M⁻¹ s⁻¹
same,Kd,human serum albumin [11],1.28 nM
same,Kd,[12],0.57 nM
same,Response,human serum albumin [2],0.438 nm
same,koff,human serum albumin [2],0.00181 s⁻¹
same,koff,human serum albumin [3],0.000203 s⁻¹
same,Response,human serum albumin [4],0.25 nm
same,koff,human serum albumin [4],0.00141 s⁻¹
same,Kd,rat serum albumin [6],0.02 nM
same,Kd,human serum albumin [7],0.91 nM
same,Kd,mouse serum albumin [8],0.29 nM
same,Kd,[9],0.38 nM
same,binding result,pig serum albumin,no binding (tested: 800 nM (highest concentration))
same,binding result,cat serum albumin,no binding (tested: 800 nM (highest concentration))
same,Kd,human serum albumin [10],0.825 nM
B8,Kd,human serum albumin [11],2.11 nM
same,Kd,[12],0.32 nM
B9,Kd,human serum albumin [14],5 nM
